Experiment [1] addresses T1, human complement factor Bb (human, UniProt P00751 260-764).
T1 construct: Bought from Complement Technology; Biotinylated with EZ-Link Sulfo-NHS-LC-LC-Biotin when captured in BLI; also called FBb
Description: BLI (Octet), biotinylated target on streptavidin sensor. The text has this: (§1) Bio-layer interferometry (BLI) was used to assess the recombinant proteins' target engagement to and binding affinity for complement C1s enzyme (active C1s or “C1s” herein) and factor Bb (Bb) (Complement Technology, Tyler, TX, USA). C1s and Bb were biotinylated with EZ-Link™ Sulfo-NHS-LC-LC-Biotin (Thermo Fisher, Waltham, MA, USA) according to manufacturer instructions. Biotinylated C1s or Bb was loaded on Octet® Streptavidin (SA) Biosensors (Sartorius, Göttingen, Germany), followed by a concentration range of purified proteins. To assess dual target engagement, biotinylated active C1s or Bb was loaded onto sensors, followed by purified proteins (“first association phase”), followed by the non-captured complement target (Bb or active C1s, non-biotinylated; “second association phase”). The assays were performed at 30° C. using PBS with 0.1% Tween 20 as a diluent (FIG. 3).
(Biolayer interferometry detects binding as a change in optical thickness at a sensor tip.)

Experiment [2] has as its target T2, human complement C1s enzyme (activated C1s) (human, UniProt P09871 16-437; P09871 438-688).
T2 construct: Bought from Complement Technology; Disulfide-linked heterodimer; Biotinylated with EZ-Link Sulfo-NHS-LC-LC-Biotin when captured in BLI; also called active C1s; aC1s
T2 sequence 1: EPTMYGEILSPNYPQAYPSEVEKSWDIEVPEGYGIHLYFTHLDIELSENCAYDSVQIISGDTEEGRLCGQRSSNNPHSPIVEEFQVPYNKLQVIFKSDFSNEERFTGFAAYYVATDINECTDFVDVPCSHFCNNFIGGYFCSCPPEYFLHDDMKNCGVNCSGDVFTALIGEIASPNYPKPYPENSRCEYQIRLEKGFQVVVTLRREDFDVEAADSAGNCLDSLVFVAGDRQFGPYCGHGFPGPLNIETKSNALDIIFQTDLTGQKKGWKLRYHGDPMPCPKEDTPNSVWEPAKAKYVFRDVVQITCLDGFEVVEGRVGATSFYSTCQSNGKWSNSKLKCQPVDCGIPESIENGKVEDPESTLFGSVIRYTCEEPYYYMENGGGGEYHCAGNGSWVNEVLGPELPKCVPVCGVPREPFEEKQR
T2 sequence 2: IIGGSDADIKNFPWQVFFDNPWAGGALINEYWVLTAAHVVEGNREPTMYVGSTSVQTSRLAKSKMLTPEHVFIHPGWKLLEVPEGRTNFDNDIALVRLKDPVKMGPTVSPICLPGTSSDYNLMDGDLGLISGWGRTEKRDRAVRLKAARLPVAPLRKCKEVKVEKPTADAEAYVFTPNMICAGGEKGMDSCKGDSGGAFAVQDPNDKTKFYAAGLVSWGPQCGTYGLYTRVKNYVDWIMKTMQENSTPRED
The experiment is described as above.
Source text: as §1

Experiment [3] addresses T1, human complement factor Bb. Description: cell-based or functional assay.
Experiment [4] has as its target T2, human complement C1s enzyme (activated …). The experiment in a line: cell-based or functional assay.
The target in experiment [5] is T1, human complement factor Bb. Description: cell-based or functional assay. The source holds these as a separate data set.
The target in experiment [6] is T2, human complement C1s enzyme (activated …). The experiment in a line: cell-based or functional assay. The source holds these as a separate data set.
For experiment [7], the target named is T1, human complement factor Bb. Description: BLI (Octet), biotinylated target on streptavidin sensor; protein purified to >98%.
Source text: as §1

For experiment [8], the target named is T2, human complement C1s enzyme (activated …). The description is as above.
Source text: as §1

Experiment [9] addresses T1, human complement factor Bb. Description: cell-based or functional assay. This is another data set of the same source.
Experiment [10] has as its target T2, human complement C1s enzyme (activated …). Description: cell-based or functional assay. This is another data set of the same source.
Experiment [11] concerns the target T1, human complement factor Bb. Description: cell-based or functional assay. This is another data set of the same source.
The target of experiment [12] is T2, human complement C1s enzyme (activated …). The experiment in a line: cell-based or functional assay. This is another data set of the same source.
For experiment [13], the target named is T1, human complement factor Bb. Description: BLI (Octet), biotinylated target on streptavidin sensor; partially purified protein.
Source text: as §1
(§2) The third expression construct, construct #9 (FIGS. 2B and 21), is composed of a bidirectional minCBA promoter driving expression of separate transcripts encoding human codon-optimized αBb scFab or αC1s scFab [αC1s scFab+αBb scFab], each followed by a bGH poly (A) signal.

The target in experiment [14] is T2, human complement C1s enzyme (activated …). Described as above.
Source text: as §1, §2

Experiment [15] addresses T1, human complement factor Bb. The experiment in a line: BLI dual target engagement: one target captured, then protein, then the other target.
Source text: as §1

Experiment [16] deals with T2, human complement C1s enzyme (activated …). The experiment is described as above.
Source text: as §1

As a reminder, the Kd is the concentration at which binding is half-saturated. A high value points to a looser complex. Broadly, the koff is the rate constant with which the complex falls apart. Read a low koff as slow dissociation. By kon is commonly meant the second-order rate constant of association. The low end stands for slower complex formation, the high end for faster complex formation.

T1 sequence (P00751 260-764): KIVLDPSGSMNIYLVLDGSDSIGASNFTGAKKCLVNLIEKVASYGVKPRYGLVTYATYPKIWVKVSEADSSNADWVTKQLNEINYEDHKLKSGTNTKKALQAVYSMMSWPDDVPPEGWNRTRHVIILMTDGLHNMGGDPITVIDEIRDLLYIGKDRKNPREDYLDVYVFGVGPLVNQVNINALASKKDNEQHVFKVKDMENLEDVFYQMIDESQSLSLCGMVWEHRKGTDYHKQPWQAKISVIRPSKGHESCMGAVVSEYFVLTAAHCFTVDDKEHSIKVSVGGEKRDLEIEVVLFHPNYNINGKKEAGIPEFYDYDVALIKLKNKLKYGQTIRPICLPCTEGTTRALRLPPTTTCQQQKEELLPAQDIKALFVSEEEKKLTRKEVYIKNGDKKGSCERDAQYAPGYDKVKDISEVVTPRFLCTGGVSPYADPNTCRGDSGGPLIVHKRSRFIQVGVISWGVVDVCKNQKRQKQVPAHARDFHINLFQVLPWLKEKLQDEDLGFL

B1: construct #14: αC1s scFab-(G4S)2-αBb scFv-CM (bispecific antibody)
chain: DIVLTQSPDSLAVSLGERATISCKASQSVDYDGDSYMNWYQEKPGQPPKILIYDASNLESGIPARFSGSGSGTDFTLTISSLEPEDFAIYYCQQSNEDPWTFGGGTKVEIKRTVAAPSVFIFPPSDEQLKSGTASVVCLLNNFYPREAKVQWKVDNALQSGNSQESVTEQDSKDSTYSLSSTLTLSKADYEKHKVYACEVTHQGLSSPVTKSFNRGECGGGGSGGGGSGGGGSGGGGSGGGGSGGGGSGGGGSQVQLVQSGAEVKKPGASVKLSCTASGFNIKDDYIHWVKKAPGQGLEWIGRIDPADGHTKYAPKFQVKVTITADTSTSTAYLELSSLRSEDTAVYYCARYGYGREVFDYWGQGTTVTVSSASTKGPSVFPLAPCSRSTSESTAALGCLVKDYFPEPVTVSWNSGALTSGVHTFPAVLQSSGLYSLSSVVTVPSSSLGTKTYTCNVDHKPSNTKVDKRVGGGGSGGGGSEVQLVESGGGLVKPGGSLRLSCAASGFTFSNYAMSWVREAPGKRLEWVATISNRGSYTYYPDSVKGRFTISRDNAKNSLYLQMNSLRAEDTALYYCARERPMDYWGQGTLVTVSSGGGGSGGGGSGGGGSDIQMTQSPSTLSASVGDRVTITCKASQDVGTAVAWYQKKPGKAPKLLIYWASTRHTGVPDRFSGSGSGTDFTLTISSLQAEDFAVYFCHQHSSNPLTFGQGTKLEIK
notes: Residues 1-20 were left out as the signal peptide, which is marked by boldface only
With B1, the equilibrium dissociation constant (Kd) in [1] was 2.5 nM; in experiment [2] it was 1.4 nM; in experiment [7] it was 4.2 nM; in experiment [8] it was 1.3 nM; in experiment [13] it was 2.5 nM; in [14], 1.4 nM. For the same molecule, the koff in experiment [1] worked out at 0.00017 s⁻¹; in experiment [2], 0.00049 s⁻¹. Besides, the kon came out at 70000 M⁻¹ s⁻¹ in experiment [1] and 360000 M⁻¹ s⁻¹ in experiment [2]. The “Wieslab AP IC50, fold of purified anti-Bb Fab” value in [3] is around 6 fold. The “Wieslab CP IC50, fold of purified anti-C1s Fab” value in experiment [4] was around 6 fold. Moreover, the “IC50 AP (Wieslab)” value in experiment [5] was determined as 551 nM. In [6], the “IC50 CP (Wieslab)” value was 38.6 nM. For the same molecule, the “AP IC50 (Wieslab)” value in experiment [9] came to 551 nM. Also, in [10], the “CP IC50 (Wieslab)” value stood at 38.6 nM. In addition, in experiment [11], the “IC50 AP Wieslab EIA” value stood at 347 nM. The “IC50 CP Wieslab EIA” value in experiment [12] stood at 5.9 nM.

B2: construct #12: αBb scFab-(G4S)3-αC1s scFab-CM (bispecific antibody)
chain: DIQMTQSPSTLSASVGDRVTITCKASQDVGTAVAWYQKKPGKAPKLLIYWASTRHTGVPDRFSGSGSGTDFTLTISSLQAEDFAVYFCHQHSSNPLTFGQGTKLEIKRTVAAPAVFIFPPSDEQLKSGTASVVCLLKNFYPREAKVQWKVDNALQSGNSQESVTEQDSKDSTYSLSSTLTLSKADYEKHKVYACEVTHQGLSSPVTKSFNRGECGGGGSGGGGSGGGGSGGGGSGGGGSGGGGSGGGGSEVQLVESGGGLVKPGGSLRLSCAASGFTFSNYAMSWVREAPGKRLEWVATISNRGSYTYYPDSVKGRFTISRDNAKNSLYLQMNSLRAEDTALYYCARERPMDYWGQGTLVTVSSASTKGPSVFPLAPCSRSTSESTAALGCLVKDYFPEPVTVSWNSGALTSGVHTFPAVLQSSGLYSLSSVVEVPSSSLGTKTYTCNVDHKPSNTKVDKRVGGGGGSGGGGSGGGGSDIVLTQSPDSLAVSLGERATISCKASQSVDYDGDSYMNWYQEKPGQPPKILIYDASNLESGIPARFSGSGSGTDFTLTISSLEPEDFAIYYCQQSNEDPWTFGGGTKVEIKRTVAAPSVFIFPPSDEQLKSGTASVVCLLNNFYPREAKVQWKVDNALQSGNSQESVTEQDSKDSTYSLSSTLTLSKADYEKHKVYACEVTHQGLSSPVTKSFNRGECGGGGSGGGGSGGGGSGGGGSGGGGSGGGGSGGGGSQVQLVQSGAEVKKPGASVKLSCTASGFNIKDDYIHWVKKAPGQGLEWIGRIDPADGHTKYAPKFQVKVTITADTSTSTAYLELSSLRSEDTAVYYCARYGYGREVFDYWGQGTTVTVSSASTKGPSVFPLAPCSRSTSESTAALGCLVKDYFPEPVTVSWNSGALTSGVHTFPAVLQSSGLYSLSSVVTVPSSSLGTKTYTCNVDHKPSNTKVDKRV
notes: as for B1
With B2, the dissociation constant Kd in experiment [1] worked out at 6.6 nM; in experiment [2], 3.6 nM; in experiment [7], 1.5 nM; in experiment [8] it was 5.4 nM; in [13], 6.6 nM; in experiment [14], 3.6 nM. Also, the koff in [1] is 0.00055 s⁻¹; in experiment [2], 0.00065 s⁻¹. Moreover, the results for the kon in [1] and in [2] were 80000 M⁻¹ s⁻¹ and 180000 M⁻¹ s⁻¹, respectively. Further, the “Wieslab AP IC50, fold of purified anti-Bb Fab” value in experiment [3] was around 7 fold. In addition, the “Wieslab CP IC50, fold of purified anti-C1s Fab” value in experiment [4] was around 14 fold. In addition, in experiment [5], the “IC50 AP (Wieslab)” value is 702 nM. The “IC50 CP (Wieslab)” value in experiment [6] was found to be 84.4 nM. Besides, the “AP IC50 (Wieslab)” value in experiment [9] is 702 nM. Besides, the “CP IC50 (Wieslab)” value in [10] was determined as 84.4 nM. Besides, the “IC50 AP Wieslab EIA” value in experiment [11] came out at 428 nM. The “IC50 CP Wieslab EIA” value in experiment [12] was found to be 10.4 nM.

B3: construct #17: αC1s F2A Fab-(G4S)3-αBb scFab (bispecific antibody)
light: DIVLTQSPDSLAVSLGERATISCKASQSVDYDGDSYMNWYQQKPGQPPKILIYDASNLESGIPARFSGSGSGTDFTLTISSLEPEDFAIYYCQQSNEDPWTFGGGTKVEIKRTVAAPSVFIFPPSDEQLKSGTASVVCLLNNFYPREAKVQWKVDNALQSGNSQESVTEQDSKDSTYSLSSTLTLSKADYEKHKVYACEVTHQGLSSPVTKSFNRGEC
chain: QVQLVQSGAEVKKPGASVKLSCTASGFNIKDDYIHWVKQAPGQGLEWIGRIDPADGHTKYAPKFQVKVTITADTSTSTAYLELSSLRSEDTAVYYCARYGYGREVFDYWGQGTTVTVSSASTKGPSVFPLAPCSRSTSESTAALGCLVKDYFPEPVTVSWNSGALTSGVHTFPAVLQSSGLYSLSSVVTVPSSSLGTKTYTCNVDHKPSNTKVDKRVGGGGSGGGGSGGGGSDIQMTQSPSTLSASVGDRVTITCKASQDVGTAVAWYQQKPGKAPKLLIYWASTRHTGVPDRFSGSGSGTDFTLTISSLQAEDFAVYFCHQHSSNPLTFGQGTKLEIKRTVAAPSVFIFPPSDEQLKSGTASVVCLLNNFYPREAKVQWKVDNALQSGNSQESVTEQDSKDSTYSLSSTLTLSKADYEKHKVYACEVTHQGLSSPVTKSFNRGECGGGGSGGGGSGGGGSGGGGSGGGGSGGGGSGGGGSEVQLVESGGGLVKPGGSLRLSCAASGFTFSNYAMSWVRQAPGKRLEWVATISNRGSYTYYPDSVKGRFTISRDNAKNSLYLQMNSLRAEDTALYYCARERPMDYWGQGTLVTVSSASTKGPSVFPLAPCSRSTSESTAALGCLVKDYFPEPVTVSWNSGALTSGVHTFPAVLQSSGLYSLSSVVTVPSSSLGTKTYTCNVDHKPSNTKVDKRV
As to B3, the binding result in experiment [15] and in experiment [16] was “binds” throughout.

B4: construct #18: αC1s GT2A Fab-(G4S)3-αBb scFab (bispecific antibody)
light: B3 light
chain: B3 chain
As to B4, the binding result in experiment [15] and in experiment [16] was “binds” in each case.

(Values after US20240401082A1 (Sanofi, published 2024).)
